The target of one data set is T1, G6PDH-C (Pseudomonas putida, UniProt Q88C32).
T1 construct: gene zwf
T1 sequence (Q88C32 1-485): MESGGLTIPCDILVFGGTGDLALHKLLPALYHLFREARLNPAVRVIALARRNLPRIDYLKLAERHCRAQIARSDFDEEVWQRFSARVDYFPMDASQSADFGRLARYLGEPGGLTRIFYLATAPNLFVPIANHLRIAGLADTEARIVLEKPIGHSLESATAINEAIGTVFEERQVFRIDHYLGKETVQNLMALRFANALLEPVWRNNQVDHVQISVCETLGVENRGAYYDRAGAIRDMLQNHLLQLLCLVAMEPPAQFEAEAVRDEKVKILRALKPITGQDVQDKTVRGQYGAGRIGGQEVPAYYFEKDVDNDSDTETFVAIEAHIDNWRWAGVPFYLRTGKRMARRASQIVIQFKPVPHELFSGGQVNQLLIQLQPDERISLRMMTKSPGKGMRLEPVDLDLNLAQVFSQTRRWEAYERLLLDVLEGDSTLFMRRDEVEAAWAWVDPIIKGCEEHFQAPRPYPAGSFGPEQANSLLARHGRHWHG
Briefly: initial rates, NAD(P)H formation at […] nm, global fit (DYNAFIT), rapid-equilibrium random-ordered model. The class given is biochemical. The following applies: buffer A (50 mM Tris-HCl, 5 mM NaCl, 5 mM MgCl2, 5% glycerol), pH 8.0, 30°C, G6P varied.

In the next data set the target is T2, G6PDH-B (Pseudomonas putida, UniProt Q88FP7).
T2 construct: gene zwfB
T2 sequence (Q88FP7 1-501): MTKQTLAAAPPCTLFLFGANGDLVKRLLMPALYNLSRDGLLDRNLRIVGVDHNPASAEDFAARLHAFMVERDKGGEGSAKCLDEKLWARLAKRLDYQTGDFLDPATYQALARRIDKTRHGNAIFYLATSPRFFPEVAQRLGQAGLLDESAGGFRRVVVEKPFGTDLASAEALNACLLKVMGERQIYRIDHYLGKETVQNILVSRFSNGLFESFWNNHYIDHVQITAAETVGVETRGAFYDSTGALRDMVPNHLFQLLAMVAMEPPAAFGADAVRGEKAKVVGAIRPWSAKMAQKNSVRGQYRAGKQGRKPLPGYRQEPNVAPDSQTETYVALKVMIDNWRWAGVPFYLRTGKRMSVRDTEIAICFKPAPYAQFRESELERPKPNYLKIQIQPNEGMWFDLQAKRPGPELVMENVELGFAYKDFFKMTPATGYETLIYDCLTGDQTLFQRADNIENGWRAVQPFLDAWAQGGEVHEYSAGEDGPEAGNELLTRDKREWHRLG
The data set is described as above. The class given is biochemical. Particulars: buffer A (50 mM Tris-HCl, 5 mM NaCl, 5 mM MgCl2, 5% glycerol), pH 8.0, 30°C, G6P varied.

Substrate in data set [1]: NC(=O)c1ccc[n+]([C@@H]2O[C@H](COP(=O)(O)OP(=O)(O)OC[C@H]3O[C@@H](n4cnc5c(N)ncnc54)[C@H](O)[C@@H]3O)[C@@H](O)[C@H]2O)c1
Put plainly: purified protein. The following applies: G6P co-substrate, buffer A (50 mM Tris-HCl, 5 mM NaCl, 5 mM MgCl2, 5% glycerol), pH 8.0, 30°C. The class given is biochemical, Pseudomonas putida.

Substrate in data set [2]: NC(=O)c1ccc[n+]([C@@H]2O[C@H](COP(=O)(O)OP(=O)(O)OC[C@H]3O[C@@H](n4cnc5c(N)ncnc54)[C@H](OP(=O)(O)O)[C@@H]3O)[C@@H](O)[C@H]2O)c1
Put plainly: purified protein. The class given is biochemical, Pseudomonas putida. The following applies: G6P co-substrate, buffer A (50 mM Tris-HCl, 5 mM NaCl, 5 mM MgCl2, 5% glycerol), pH 8.0, 30°C.

Where [3] appears, read: dissociation constant of NADP+ from free enzyme, read-out: NADP^+ / Ki.
The mark [4] stands for this setting: dissociation constant of NAD+ from free enzyme, read-out: NAD^+ / Ki.

Read-outs that look alike come from different tables or passages of the source.

The values below come from article PMC8546961, “Cofactor Specificity of Glucose-6-Phosphate Dehydrogenase Isozymes in Pseudomonas putida Reveals a General Principle Underlying Glycolytic Strategies in Bacteria” (mSystems, 2021).

For orientation: Km means the substrate concentration at which the rate is half of its maximum.

Consider `NC(=O)c1ccc[n+]([C@@H]2O[C@H](COP(=O)(O)OP(=O)(O)OC[C@H]3O[C@@H](n4cnc5c(N)ncnc54)[C@H](OP(=O)(O)O)[C@@H]3O)[C@@H](O)[C@H]2O)c1` [NADP^+], for which the Kd is 9.2 ± 1.9 µM on G6PDH-C (setting [3]) and 790 ± 110 µM on G6PDH-B (setting [3]).
Regarding `NC(=O)c1ccc[n+]([C@@H]2O[C@H](COP(=O)(O)OP(=O)(O)OC[C@H]3O[C@@H](n4cnc5c(N)ncnc54)[C@H](O)[C@@H]3O)[C@@H](O)[C@H]2O)c1` [NAD^+], the values for the Kd on G6PDH-C (setting [4]) and at G6PDH-B (setting [4]) were 5800 µM and 301 ± 48 µM, respectively.

B1: G6PDH-C (Pseudomonas putida KT2440) (protein)
chain: MESGGLTIPCDILVFGGTGDLALHKLLPALYHLFREARLNPAVRVIALARRNLPRIDYLKLAERHCRAQIARSDFDEEVWQRFSARVDYFPMDASQSADFGRLARYLGEPGGLTRIFYLATAPNLFVPIANHLRIAGLADTEARIVLEKPIGHSLESATAINEAIGTVFEERQVFRIDHYLGKETVQNLMALRFANALLEPVWRNNQVDHVQISVCETLGVENRGAYYDRAGAIRDMLQNHLLQLLCLVAMEPPAQFEAEAVRDEKVKILRALKPITGQDVQDKTVRGQYGAGRIGGQEVPAYYFEKDVDNDSDTETFVAIEAHIDNWRWAGVPFYLRTGKRMARRASQIVIQFKPVPHELFSGGQVNQLLIQLQPDERISLRMMTKSPGKGMRLEPVDLDLNLAQVFSQTRRWEAYERLLLDVLEGDSTLFMRRDEVEAAWAWVDPIIKGCEEHFQAPRPYPAGSFGPEQANSLLARHGRHWHG
With B1, the Km result in “purified protein [1]” is “(9.5 ± 1.1)×10^3 μM”; in the data set “purified protein [2]”, 3.2 ± 0.7 µM. Moreover, the figures for the kcat in the data set “purified protein [1]” and in “purified protein [2]” were 0.77 ± 0.04 s^–1 and 0.54 ± 0.02 s^–1, respectively.

B2: G6PDH-B (Pseudomonas putida KT2440) (protein)
chain: MTKQTLAAAPPCTLFLFGANGDLVKRLLMPALYNLSRDGLLDRNLRIVGVDHNPASAEDFAARLHAFMVERDKGGEGSAKCLDEKLWARLAKRLDYQTGDFLDPATYQALARRIDKTRHGNAIFYLATSPRFFPEVAQRLGQAGLLDESAGGFRRVVVEKPFGTDLASAEALNACLLKVMGERQIYRIDHYLGKETVQNILVSRFSNGLFESFWNNHYIDHVQITAAETVGVETRGAFYDSTGALRDMVPNHLFQLLAMVAMEPPAAFGADAVRGEKAKVVGAIRPWSAKMAQKNSVRGQYRAGKQGRKPLPGYRQEPNVAPDSQTETYVALKVMIDNWRWAGVPFYLRTGKRMSVRDTEIAICFKPAPYAQFRESELERPKPNYLKIQIQPNEGMWFDLQAKRPGPELVMENVELGFAYKDFFKMTPATGYETLIYDCLTGDQTLFQRADNIENGWRAVQPFLDAWAQGGEVHEYSAGEDGPEAGNELLTRDKREWHRLG
For B2, the Km is 151 ± 7 µM in the data set “purified protein [1]” and 165 ± 11 µM in “purified protein [2]”. Further, the kcat in the data set “purified protein [1]” is on record as 120 ± 1 s^–1; in the data set “purified protein [2]” it was 113 ± 1 s^–1.
